{
  "source": "paper doi:10.1101/2022.09.14.507916",
  "biological_target": "octameric HlgAB pore complex of γ-hemolysin (four HlgA and four HlgB, alternating) (Staphylococcus aureus (strain Newman))",
  "test": "cryo-EM structure",
  "data": [
    {"substance": "octameric HlgAB pore complex of γ-hemolysin (four HlgA and four HlgB, alternating)", "values": [
      {"measurement": "stoichiometry N", "result": 6}
    ]}
  ]
}
